Results: paper PMC4383067

Molecular target: Full-length human acetylcholinesterase (dimeric, recombinant) (human) (UniProt P22303)
Assay: SEC-MALS

## Full-length human acetylcholinesterase (dimeric, recombinant) (from UniProt P22303 32-614) (enzyme)
  stoichiometry N: 2
